Experimental data published in US20060026702A1, “Phosphoinositide 3-kinase mediated inhibition of GPCRs” (DUKE UNIVERSITY, priority 2002, published 2006).

What was measured:
Format in all cases: cell-based
β2AR = β2AR sequestration in HEK-293 cells by 125I-Cyanopindolol binding; conditions: 1 μM isoproterenol, 0-30 min; FLAG-HEAT co-transfected
Experimental: Determination of β2AR Sequestration in HEK-293 Cells by ^125I-Cyanopindolol (CYP) Binding—β2AR sequestration was performed as previously described. Briefly, HEK-293 cells were plated at a density of 2.5×10^6 cells/dish and transfected the following day with plasmids containing either the β2AR (150-250 ng), β2AR (250 ng) and HEAT domain (4 μg), PI3Kγ (4.0 μg) or ΔPI3Kγ (4.0 μg) cDNAs. Twelve hours after transfection cells were split into six well Falcon plates at a density of 750,000 cells/well. […] To determine the amount of internalized receptor, 100 μl aliquots of whole cells were added to 150 μl of binding buffer (75 mM Tris-HCl, 10 mM MgCl2, 5 mM EDTA (pH 7.5)). Total binding was determined in the presence of 175 pM ^125I-CYP alone, the number of internalized receptors were determined by using 175 pM ^125I-CYP plus 100 nM CGP12177, and non-specific binding was determined using 175 pM ^125I-CYP plus 1 μM propranolol. Sequestration was calculated as the ratio of (specific receptor binding of ^125I-CYP in the presence of CGP12177)/(specific receptor binding of ^125I-CYP in the absence of CGP12177).

AT1AR-GFP = molecular target: T1, AT1AR-GFP (Rattus norvegicus, UniProt P25095); experiment: Endocytosis of AT1AR-GFP in live cells by confocal microscopy; conditions: Angiotensin II 10 μM, 20 min; HEAT co-expressed
T1 construct: expressed in transfected cells; host or cells: HEK 293
T1 sequence (P25095 1-359): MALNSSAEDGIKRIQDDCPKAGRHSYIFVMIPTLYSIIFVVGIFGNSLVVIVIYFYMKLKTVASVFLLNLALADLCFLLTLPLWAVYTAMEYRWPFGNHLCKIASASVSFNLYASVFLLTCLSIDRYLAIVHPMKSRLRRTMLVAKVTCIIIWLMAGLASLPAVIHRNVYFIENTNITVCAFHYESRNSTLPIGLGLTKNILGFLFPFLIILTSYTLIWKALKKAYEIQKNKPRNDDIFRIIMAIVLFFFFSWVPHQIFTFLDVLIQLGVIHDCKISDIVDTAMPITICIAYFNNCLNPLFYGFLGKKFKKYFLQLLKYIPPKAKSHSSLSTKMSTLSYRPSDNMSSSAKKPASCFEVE
Experimental: Disruption of the endogenous βARK1/PI3K interaction by the HEAT protein attenuated AT1AR endocytosis. Endocytosis of AT1AR-GFP in live cells was monitored for 20 min following angiotensin (10 μM) stimulation in the absence or presence of HEAT protein co-expression using confocal microscopy. HEK 293 cells were transfected with 2 μg Angiotensin II Type 1 Receptor, or with 2 pg Angiotensin II Type 1 Receptor and 2 μg HEAT, and stimulated for 20 minutes with 10 μM Angiotensin II. AT1AR internalization was followed in the same cell after agonist stimulation. Prior to agonist, the distribution of AT1AR-GFP was found distinctly at the plasma membrane (FIG. 15, 0 min). […] With time, this was followed by the formation of cytoplasmic aggregates, and then with the complete loss of membrane fluorescence (FIG. 15, 5-20 min). […] In FIG. 15, panels on the left represent cells transfected with the AT1AR-GFP alone (panels show the same cell monitored at 0, 5, 10, 15, and 20 min following stimulation). Panels on the right represent cell transfected with AT1AR-GFP and HEAT (panels show the same cell monitored as above). In the absence of HEAT, agonist caused the internalization AT1ARs as shown by the formation of distinct cytoplasmic aggregates and complete loss of membrane fluorescence.

βARK1 = βARK1 recruitment to the membrane (immunoblot of membrane fraction); conditions: 10 μM isoproterenol; HEAT 4 μg
Experimental: Cytosolic and Membrane Fractionation—Cell monolayers were scraped in 1 ml of buffer containing 25 mM Tris-HCl (pH 7.5), 5 mM EDTA, 5 mM EGTA, 1 mM phenylmethylsulfonyl fluoride, 2 μg/ml each of leupeptin and aprotinin and disrupted further by using Dounce homogenizer. Intact cells and nuclei were removed by-centrifugation at 1,000×g for 5 min. The collected supernatant was further subject to a centrifugation at 38,000×g for 25 min. The pellet was resuspended in lysis buffer (1% Nonidet P-40, 10% glycerol, 137 mM NaCl, 20 mM Tris-Cl (ph 7.4), 1 mM phenylmethylsulfonyl fluoride, 20 mM NaF, 1 mM sodium pyrophosphate, 1 mM sodium orthovanadate and 2 μg/ml each of aprotinin and leupeptin) and used as membrane fraction and the supernatant was diluted in lysis buffer and used as the cytosolic fraction. Heart samples also underwent through similar procedures to obtain membrane and cytosolic fractions. Purity of the membrane fraction preparation was confirmed by measuring enzyme activity of the membrane marker enzyme K^+-stimulated p-nitrophenylphosphatase (membrane fraction: 9.4 μmol/mg protein per min, cytosol: 2.6 μmol/mg of protein/min). […]
Cytosolic and membrane fractions were prepared and analyzed for βARK1 associated PI3K activity. […]

B1: HEAT: 197 amino acid HEAT domain of PI3Kγ, FLAG epitope-tagged (SEQ ID NO: 2), overexpressed in cells (protein, listed as Homo sapiens)
chain: MDYKDDDDKHPIALPKHQPTPDDRVRAEMPNQLRKQLEAIIATDTAEDKELLWHFRYESLKHPKAYPKLFSSVKWGQQEIVAKTYQLLARREVWDQSALDVGLTMQLLDCNFSDENVRAIAVQKLESLEDDDVLHYLLQLVQAVKFEPYHDSALARFLLKRGLRNKRIGHFLFWFLRSEIAQSRHYQQRFAVILEAYLRGCGTA
modifications: FLAG tag
In the case of B1, the “attenuation in the rate of β2AR sequestration” value (β2AR) is reported as > 60%, the “receptor endocytosis (redistribution of AT1AR-GFP)” value (AT1AR-GFP) is reported as “completely inhibited” and the “membrane recruitment of βARK1 following isoproterenol” value (βARK1) is reported as “no effect”.
